The series can be described thus: protein stability index of a GFP-peptide fusion (yeast GPS) (PSI 1-4); higher = more stable; sorted into four equal gates, so the index is relative within each strain. The essentials:
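Plasmids in a pooled yeast library fused tiled 17-residue yeast protein peptides downstream of GFP and also expressed Cherry. Mid-log cultures grown without leucine were sorted into four equal gates by GFP/Cherry fluorescence ratio. Each gate's plasmids were PCR-amplified and Illumina-sequenced, and reads were matched to strains by barcodes. The protein stability index is derived by multiplying each gate's read frequency by its gate number and summing the results.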

± gives the uncertainty stated by the source.

Consider KEYQCSAVIIDEFKDIT [YIL149C/MLP2], for which the protein stability index was determined as 2.46 ± 0.065 (doa10∆), 2.75 ± 0.065 (pdr5∆), 2.35 ± 0.055 (san1∆) and 2.88 ± 0.044 (ubr1∆).

Consider KFEPLYPREEEEDYNEF [PRP8], for which the protein stability index is 3.35 ± 0.15 (doa10∆), 3.31 ± 0.13 (pdr5∆), 3.12 ± 0.072 (san1∆) and 3.37 ± 0.096 (ubr1∆).

As for KFFTQSNLEKLPKYKEK [MED7], the protein stability index reads like this: (doa10∆) 2.43 ± 0.046; (pdr5∆) 2.7 ± 0.048; (san1∆) 2.82 ± 0.053; (ubr1∆) 2.62 ± 0.04.

For the sequence KFILQILQILNLMILNT [YML103C/NUP188], the protein stability index was found to be 1.3 ± 0.081 (doa10∆), 1.29 ± 0.064 (pdr5∆), 1.42 ± 0.21 (san1∆) and 2.09 ± 0.03 (ubr1∆).

Regarding KFKDMGIRAPKGALMYG [RPT5], the protein stability index by setting is: (doa10∆) 3.01 ± 0.13; (pdr5∆) 3.46 ± 0.19; (san1∆) 3.17 ± 0.21; (ubr1∆) 3.4 ± 0.18.

As for KFLKIASLKHDNETKAM [RPN3], the protein stability index is, setting by setting: (doa10∆) 2.75 ± 0.1; (pdr5∆) 3.16 ± 0.13; (san1∆) 2.76 ± 0.1; (ubr1∆) 3.17 ± 0.12.

For KFPATNVTTILDEIFSG [ECM29], the protein stability index (doa10∆) came out at 2.54 ± 0.078, the protein stability index (pdr5∆) stood at 2.93 ± 0.066, the protein stability index (san1∆) is 2.28 ± 0.06 and the protein stability index (ubr1∆) was determined as 2.7 ± 0.063.

As for KFQGVLESEAQKKATMS [RPC34], the protein stability index by setting is: (doa10∆) 3.54 ± 0.18; (pdr5∆) 3.01 ± 0.18; (ubr1∆) 3.34 ± 0.11.

As to KFQLQNQLEDFILELEH [YIL149C/MLP2], the protein stability index reads like this: (doa10∆) 2.72 ± 0.081; (pdr5∆) 1.95 ± 0.099; (san1∆) 2.11 ± 0.11; (ubr1∆) 1.91 ± 0.086.

On to KFTIEPGVLPVGIDTHT [SNF2], for which the protein stability index runs as follows: (doa10∆) 2.75 ± 0.12; (pdr5∆) 2.61 ± 0.14; (san1∆) 3 ± 0.14; (ubr1∆) 2.73 ± 0.068.

Turning to KGALMYGPPGTGKTLLA [RPT5], the protein stability index runs as follows: (doa10∆) 2.18 ± 0.074; (pdr5∆) 2.24 ± 0.069; (san1∆) 2.3 ± 0.18; (ubr1∆) 1.35 ± 0.11.

KGETNSEISIIDATLKE [RRP45]: the protein stability index turned out to be 2.92 ± 0.074 (doa10∆), 3.08 ± 0.068 (pdr5∆), 3.31 ± 0.072 (san1∆) and 3.19 ± 0.059 (ubr1∆).

As to KGKKGQKKRVVDPFTRK [RPS1A], the protein stability index reads like this: (doa10∆) 3.25 ± 0.13; (pdr5∆) 3.69 ± 0.18; (san1∆) 3.19 ± 0.15; (ubr1∆) 3.47 ± 0.056.

Turning to KGKKYQPKDLRAKKTRA [RPL35A], the protein stability index runs as follows: (doa10∆) 2.85 ± 0.25; (pdr5∆) 2.98 ± 0.14; (san1∆) 2.46 ± 0.13; (ubr1∆) 2.89 ± 0.12.

As to KGPIIISKNPSNGIFYG [SIR2], the protein stability index (doa10∆) was determined as 2.74 ± 0.067, the protein stability index (pdr5∆) was 2.5 ± 0.061, the protein stability index (san1∆) came to 1.92 ± 0.083 and the protein stability index (ubr1∆) was 2.3 ± 0.053.

On to KGPLLIERIGHLLSINY [PCI8], for which the protein stability index reads like this: (doa10∆) 2.35 ± 0.11; (pdr5∆) 2.71 ± 0.15; (ubr1∆) 3.11 ± 0.15.

Consider KGQGPFTLTYDIIETFS [YMR129W/POM152], for which the protein stability index reads like this: (doa10∆) 1.95 ± 0.045; (pdr5∆) 2.31 ± 0.064; (san1∆) 2.02 ± 0.057; (ubr1∆) 2.48 ± 0.044.

Consider KGRKTNKYANNDFANNL [CSL4], for which the protein stability index was found to be 3.28 ± 0.066 (doa10∆), 3.14 ± 0.053 (pdr5∆), 3.13 ± 0.051 (san1∆) and 3.15 ± 0.095 (ubr1∆).

KGRSYAYFMVGAMGLLS [RIP1]: the protein stability index (doa10∆) stood at 2.39 ± 0.11, the protein stability index (pdr5∆) worked out at 2.82 ± 0.12, the protein stability index (san1∆) is 3.16 ± 0.2 and the protein stability index (ubr1∆) was determined as 2.98 ± 0.074.

For KGYVFKISGGNDKQGFP [RPS6A], the protein stability index (doa10∆) amounted to 2.62 ± 0.068, the protein stability index (pdr5∆) was 2.89 ± 0.071, the protein stability index (san1∆) came out at 2.99 ± 0.052 and the protein stability index (ubr1∆) was 3 ± 0.054.

For the sequence KHGAVHMSTYLKIYKVG [RPL21B], the protein stability index runs as follows: (doa10∆) 1.65 ± 0.042; (pdr5∆) 1.52 ± 0.043; (san1∆) 1.9 ± 0.062; (ubr1∆) 1.74 ± 0.054.

For the sequence KHHQLFYMLNAGIRPKF [RPN1], the protein stability index runs as follows: (doa10∆) 2.23 ± 0.17; (pdr5∆) 2.04 ± 0.085; (san1∆) 1.7 ± 0.082; (ubr1∆) 1.98 ± 0.1.

KHLEDNTLLISGPFKVN [RPL6A]: the protein stability index runs as follows: (doa10∆) 1.83 ± 0.085; (pdr5∆) 2.01 ± 0.072; (san1∆) 1.63 ± 0.13; (ubr1∆) 2.14 ± 0.048.

Regarding KHWQERVKVHFDQAGKK [RPL13A], the protein stability index by setting is: (doa10∆) 2.31 ± 0.046; (pdr5∆) 2.33 ± 0.047; (san1∆) 2.28 ± 0.064; (ubr1∆) 2.35 ± 0.036.

Take KIEFPLPSEDSRAQILQ [RPT5]: the protein stability index reads like this: (doa10∆) 3.39 ± 0.15; (pdr5∆) 3.18 ± 0.13; (san1∆) 3.11 ± 0.09; (ubr1∆) 3.51 ± 0.11.

Values taken from the supplement of paper PMC9732359.
